Assay results reported in the supplement of paper PMC10724198.
± gives the standard deviation of the averaged measurements.

Tested on: Saccharomyces cerevisiae
Test: protein stability index of tFT-peptide fusion (C-terminal peptide) (PSI (0-1 scale)); higher = more stable (slower turnover)
Settings: genetic background: wild type; temperature: 30 C
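Note: PSI is a weighted mean of sequencing reads over stability bins, variants kept only with over 10 reads, mCherry proximal and sfGFP distal, peptide attached via GGGS linker.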

KSFQLEHKYTRN
protein stability index: 0.737 ± 0.029

GRGRVGGGGVAV
protein stability index: 0.682 ± 0.042

QEGGWKRTYDII
protein stability index: 0.678 ± 0.046

RLRAFSRSVSSP
protein stability index: 0.734 ± 0.11

RNAGIQVTGQAF
protein stability index: 0.704 ± 0.0079

GQQLSLRGVVHW
protein stability index: 0.844 ± 0.2

SLRLSRFLLTAP
protein stability index: 0.5536 ± 0.0031

GRGTGGKGRRGS
protein stability index: 0.693 ± 0.015

PPPPAHSYHPPS
protein stability index: 0.714 ± 0.16

VFGLVGWCAGDC
protein stability index: 0.715 ± 0.094

VKLSVITGCRVT
protein stability index: 0.659 ± 0.092

PLCSPALHGPPP
protein stability index: 0.736 ± 0.033

TEPHSDQPKKNA
protein stability index: 0.701 ± 0.14

VSRGRSAKKSAI
protein stability index: 0.695 ± 0.06

VGGLGRGTGSGP
protein stability index: 0.683 ± 0.096

GTYNIGVFAPEN
protein stability index: 0.653 ± 0.032

PPPPVPPPPSSL
protein stability index: 0.749 ± 0.037

EDVEGVWVKGCE
protein stability index: 0.725 ± 0.17

LAGISSNRHLRR
protein stability index: 0.753 ± 0.067

SSPPWPILHSPP
protein stability index: 0.6952 ± 0.0014

RILLSHGNSRSI
protein stability index: 0.699 ± 0.013

LLPGLVGMLSCM
protein stability index: 0.602 ± 0.039

HPHPPQSTNPYT
protein stability index: 0.677 ± 0.058

SHRTHPAAPHAP
protein stability index: 0.738 ± 0.056

SPPALPPFLAPL
protein stability index: 0.72 ± 0.1

RSRNAHAPPLAG
protein stability index: 0.764 ± 0.065

THYFNIKCSQTK
protein stability index: 0.665 ± 0.013

PPHAPTRTTSGP
protein stability index: 0.6388 ± 0.0013

ACLPRARLRFHV
protein stability index: 0.669 ± 0.027

SAWHRGCSCHLC
protein stability index: 0.682 ± 0.029

AGVGGCVGLGCR
protein stability index: 0.653 ± 0.042

KWEGKKINKKRE
protein stability index: 0.699 ± 0.077

AGCVVGWGAWVL
protein stability index: 0.7035 ± 0.0064

QEPARPTGPGQS
protein stability index: 0.628 ± 0.019

PHAPHFSRSIPS
protein stability index: 0.745 ± 0.027

GGAGGGVWGGGV
protein stability index: 0.735 ± 0.014

NAGNDVFSLDIC
protein stability index: 0.683 ± 0.034

WSVAVVWDALFG
protein stability index: 0.699 ± 0.04

FPLHSSLSGPPC
protein stability index: 0.737 ± 0.0083

GYGWGVGGGFGR
protein stability index: 0.691 ± 0.019

GGGGGGLTGRVG
protein stability index: 0.711 ± 0.009

SPASPPPPSPLL
protein stability index: 0.695 ± 0.028

FPRRLLPLSPPP
protein stability index: 0.704 ± 0.015

LEGTGDRFALCG
protein stability index: 0.659 ± 0.023

CLREYGGRGGWE
protein stability index: 0.706 ± 0.028

AGSFGCREAVCP
protein stability index: 0.658 ± 0.044

WGRRGRRGSWGA
protein stability index: 0.683 ± 0.024

PHLANLFTWSSC
protein stability index: 0.66 ± 0.092

FPLVPPPSSPLF
protein stability index: 0.687 ± 0.022

DVCFIRRRYKKI
protein stability index: 0.669 ± 0.041

SRGSMLRRPLFV
protein stability index: 0.571

GFVPGGGGRSSV
protein stability index: 0.681 ± 0.0092

CLAVPFSFRLVW
protein stability index: 0.613 ± 0.041

FRRHRHDVLTVR
protein stability index: 0.599 ± 0.05

EVFGLWQGCFVW
protein stability index: 0.728 ± 0.058

VTLTPPVLYTSL
protein stability index: 0.647 ± 0.059

LPTPSSSYLYPA
protein stability index: 0.611 ± 0.017

KKETKSNCRIKN
protein stability index: 0.708 ± 0.017

GVYNGGIPQVLQ
protein stability index: 0.6843 ± 0.0028

RKKKKKLKKKTE
protein stability index: 0.66 ± 0.082

PDRPYPPPLVAR
protein stability index: 0.694 ± 0.058

PSPLRLPPPSVP
protein stability index: 0.712 ± 0.013

TAYPPAPFRRIN
protein stability index: 0.492 ± 0.057

WVWAIDYEGLLW
protein stability index: 0.699 ± 0.054

LSTPSLFTPFRA
protein stability index: 0.715 ± 0.024

SLTENRGRKKKK
protein stability index: 0.664 ± 0.0082

GVRGVSHMDGGD
protein stability index: 0.758 ± 0.16

VPLRVSLGCDAF
protein stability index: 0.67 ± 0.04

PAPPPRDLPTPP
protein stability index: 0.664 ± 0.007

LLPSPLHGCTMS
protein stability index: 0.676 ± 0.01

FVASVGVGGGVG
protein stability index: 0.58 ± 0.013

GLSLSLLSSLFV
protein stability index: 0.71 ± 0.02

GYSSPPLITIPH
protein stability index: 0.659 ± 0.023

RFKCVKPPLPRR
protein stability index: 0.715 ± 0.03

PPPSRSLPPRRL
protein stability index: 0.661 ± 0.03

CRGRWVAWSMGI
protein stability index: 0.7221 ± 0.0019

FTLRILSRPVIP
protein stability index: 0.656 ± 0.046

SYVAERVMSRMV
protein stability index: 0.65 ± 0.0087

KKKKKTQKKTKQ
protein stability index: 0.6818 ± 0.0029

PLPPPPVPPTPS
protein stability index: 0.606 ± 0.012

FWMPKASALGAA
protein stability index: 0.655 ± 0.019

KSGHYVVSYSGV
protein stability index: 0.678 ± 0.0045

RDTAPPPPPALL
protein stability index: 0.788 ± 0.08

PQTPANDDGDPN
protein stability index: 0.642 ± 0.041

RFLISYFYKVIR
protein stability index: 0.56 ± 0.034

RADLHGFPHRCP
protein stability index: 0.76 ± 0.024

FQWAPGIDTVYC
protein stability index: 0.705 ± 0.058

PLRISPPPAPHP
protein stability index: 0.7251 ± 0.0025

AGLSGRGFLRGA
protein stability index: 0.6923 ± 0.0062

LGCVDRMGRVFG
protein stability index: 0.704 ± 0.079

TWARRAHALRCR
protein stability index: 0.493 ± 0.015

LTPSLPLPPSET
protein stability index: 0.654 ± 0.047

VSLLSSDTRSAY
protein stability index: 0.753 ± 0.07

GEKREGRKTRRD
protein stability index: 0.608 ± 0.046

PCWPARVWVSFL
protein stability index: 0.504 ± 0.013

TKERERAAGKKT
protein stability index: 0.7005 ± 0.0067

PLSCSPPLLSPS
protein stability index: 0.678 ± 0.0089

EKMDIEKKVEGS
protein stability index: 0.812 ± 0.12

IRILDARYLSIS
protein stability index: 0.62 ± 0.12

CIALLTPPCIIF
protein stability index: 0.72 ± 0.065

SFLVPRARPVLL
protein stability index: 0.688 ± 0.041
